Test results reported in patent publication US20100119516A1 (Eli Lilly, published 2010).
Changes are numbered by the printed parent chain.

T1: mouse TGFβRII-Fc (recombinant extracellular domain of mouse TGFβRII linked with mouse Fc or heavy chain … (mouse))
T1 construct: also called murine TGFβRII; not shown: mouse Fc or heavy chain constant region
T1 chain: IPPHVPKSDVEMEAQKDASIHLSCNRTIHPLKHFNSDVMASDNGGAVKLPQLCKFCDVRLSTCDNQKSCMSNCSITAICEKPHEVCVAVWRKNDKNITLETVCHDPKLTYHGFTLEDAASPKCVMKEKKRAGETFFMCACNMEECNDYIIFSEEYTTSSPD

B1: anti-human TGFβRII mAb TGF1 (antibody, human IgG1, kappa, V domains shown)
VH: QLQVQESGPGLVKPSETLSLTCTVSGGSISNSYFSWGWIRQPPGKGLEWIGSFYYGEKTYYNPSLKSRATISIDTSKSQFSLKLSSVTAADTAVYYCPRGPTMIRGVIDSWGQGTLVTVSS
VL: EIVLTQSPATLSLSPGERATLSCRASQSVRSYLAWYQQKPGQAPRLLIYDASNRATGIPARFSGSGSGTDFTLTISSLEPEDFAVYYCQQRSNWPPTFGQGTKVEIKG
notes: Human antibody from human-immunoglobulin transgenic mice, engineered as full-length human IgG1 with kappa light chain
B2: anti-human TGFβRII mAb TGF3 (antibody, human IgG1, kappa, V domains shown)
VH: QLQLQESGPGLVKPSETLSLTCTVSGGSISSSSYSWGWIRQPPGKGLEWIGSFYYSGITYYSPSLKSRIIISEDTSKNQFSLKLSSVTAADTAVYYCASGFTMIRGALDYWGQGTLVTVSS
VL: B1 VL with Y32F
notes: Human IgG1 with kappa light chain
B3: anti-human TGFβRII mAb TGF2 (antibody, V domains shown)
VH: QVQLVQSGAAVKKPGESLKISCKGSGYRFTSYWIGWVRQMPGKGLEWMGIIYPGDSDTRYSPSFQGQVTISAGKSISTAYLQWSSLKASDTAMYYCARHGRGYNGYEGAFDIWGQGTMVTVSS
VL: DIQMTQSPSSLSASVGDRVTITCRASQGISSWLAWYQQKPEKAPKSLIYAASSLQSGVPSRFSGSGSGTDFTLTISSLQPEDFATYYCQQYNSYPWTFGQGTKVEIKG
notes: as for B2

Assays:
[1] = target: T2, human TGFβRII-Fc (recombinant extracellular domain of human TGFβRII linked with human Fc or heavy chain … (human, UniProt P37173 23-166)); test: SPR (Biacore), human TGFβRII ECD-Fc immobilised, room temperature
T2 construct: not shown: human Fc or heavy chain constant region
T2 sequence (P37173 23-166): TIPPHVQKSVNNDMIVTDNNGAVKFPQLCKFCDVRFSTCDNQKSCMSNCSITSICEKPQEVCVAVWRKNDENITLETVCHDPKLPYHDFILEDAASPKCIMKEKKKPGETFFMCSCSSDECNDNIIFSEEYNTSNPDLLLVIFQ
Experimental: (§1) Kinetic analyses of the mAbs are performed by immobilization of a fusion protein of recombinant extracellular domain of either mouse TGFβRII (SEQ ID NO: 51), or the extracellular domain of human TGFβRII (SEQ ID NO: 52) linked, respectively, with either mouse or human Fc or heavy chain constant region, onto a sensor surface at a concentration of from 5 to 100 nM.

[2] = target: T3, native human TGFβRII expressed on the cell surface (human, UniProt P37173 23-567); test: flow cytometry on MDA-MB-231 human breast carcinoma cells; MFI against isotype control
T3 construct: also called human TGFβRII on 293-human TGFβRII transfectant cells, MDA-MB-231 and BXPC-3 cells
T3 sequence (P37173 23-567): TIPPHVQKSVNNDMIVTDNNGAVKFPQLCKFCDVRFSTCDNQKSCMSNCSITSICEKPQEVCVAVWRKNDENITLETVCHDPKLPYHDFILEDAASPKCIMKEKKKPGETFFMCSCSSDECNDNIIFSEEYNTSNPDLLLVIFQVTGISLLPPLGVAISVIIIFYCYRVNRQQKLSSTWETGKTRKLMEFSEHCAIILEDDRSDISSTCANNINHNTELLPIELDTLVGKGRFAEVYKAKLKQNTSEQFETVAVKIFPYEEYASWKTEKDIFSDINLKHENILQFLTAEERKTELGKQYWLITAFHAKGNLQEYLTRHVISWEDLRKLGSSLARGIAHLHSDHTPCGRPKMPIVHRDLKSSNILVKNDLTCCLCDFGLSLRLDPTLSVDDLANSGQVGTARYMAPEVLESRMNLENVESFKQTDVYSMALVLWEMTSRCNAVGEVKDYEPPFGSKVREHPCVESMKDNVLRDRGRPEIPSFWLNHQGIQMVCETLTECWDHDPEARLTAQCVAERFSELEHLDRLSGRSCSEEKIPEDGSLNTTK
Experimental: (§2) Binding activity of anti-human TGFβRII mAb TGF1 and fluorescein isothiocyanate (FITC)-labeled goat anti-human IgG antibody may be determined by a staining assay with 293-human TGFβRII transfectant cells and human carcinoma cells. Specifically, aliquots of transfectant cells, carcinoma cells, spleen cells, or lymph node cells are harvested from subconfluent cultures and incubated with fluorescein-labeled or unlabeled primary antibodies to desired molecules in PBS with 1% BSA (staining buffer) for 1 hour on ice. A matched IgG isotype is used as a negative control. Cells are washed twice with the staining buffer and then incubated with FITC, Phycoerythrin (PE) or Alxas Red labeled species-specific secondary antibody to primary antibody (BioSource International, Camarillo, Calif.) in the buffer for 30 min on ice. Cells are washed as above and analyzed on a flow cytometer. […] The mean fluorescent intensity units (MFIU) are calculated as the mean log fluorescence multiplied by the percentage of positive population. The mean fluorescent intensity ratio (MFIR) is calculated to quantitate relative expression levels of TGFβRII in the cell lines. The MFIR is the mean fluorescence intensity (MFI) of cells stained with TGFβRII specific mAb divided by the MFI of cells stained with an isotype control antibody.

[3] = target: T2, human TGFβRII-Fc (recombinant …); test: SPR (BIAcore 2000), human TGFβRII ECD-Fc immobilised, room temperature
Experimental: as §1

[4] = target: T4, soluble recombinant human TGFβRII alkaline phosphatase (TGFβRII-AP) (human, UniProt P37173 23-166); test: blocking ELISA: TGFβRII-AP binding to coated human TGFβ3
T4 construct: also called TGFβII-AP; not shown: alkaline phosphatase fusion partner
T4 sequence (P37173 23-166): as the sequence (P37173 23-166) above
Excerpt: (§3) At day 10 to 12 post-fusion, the hybridomas are screened for antibody production and specific binding activity of culture supernatants with TGFβRII protein in ELISA-based binding and blocking assays. Specifically, hybridomas producing anti-TGFβRII mAbs are first identified by detection of TGFβRII-bound antibody with a goat anti-human kappa light chain or anti-mouse IgG horse radish peroxidase (HRP) conjugated antibody according to the following procedure. Human TGFβRII-Fc or mouse TGFβRII-Fc is coated at 100 ng/well on 96 microtiter plates at 4° C. overnight. The coated plates are blocked with the blocking buffer (PBS 0.05% TWEEN® 20 containing 5% dry milk) at room temperature for 2 hours. Hybridoma supernatants or purified antibodies are diluted in PBS with 2% bovine serum albumin (BSA) and 0.05% TWEEN® 20 (ELISA buffer) and incubated in TGFβRII-coated, 96-well, microtiter plates for 30 minutes. Plates are washed with the ELISA buffer and incubated with goat anti-human kappa light chain or anti-mouse IgG-HRP conjugate for 30 minutes. TMB (3,3′,5,5′-tetra-methylbenzidine) substrate is used for color development following the manufacturer's instructions. The absorbance at 450 nanometers (nm) is read for quantification of binding activity of antibodies. For identification of hybridomas producing neutralizing anti-TGFβRII mAbs, an ELISA based blocking assay is performed according to the following procedure. TGFβ1, TGFβ2, or TGFβ3 is coated at 200 ng per well on 96-well plates, and wells are then blocked with the blocking buffer. […] The absorbance at 405 nm is read for quantification of TGFβRII-binding to TGFβ1, TGFβ2, and TGFβ3. Optical density (OD) values are read on a microtiter plate reader (Molecular Devices Corp., Sunnyvale, Calif.).
(§4) The binding and blocking activity of purified anti-TGFβRII mAbs is determined in ELISA as described in “Generation of anti-TGFβRII mAbs” above. ED₅₀ and IC₅₀ of the antibodies are analyzed using GraphPad Prism® software 3.03 (GraphPad Software Inc., San Diego, Calif.).

[5] = target: T4, soluble recombinant human TGFβRII …; test: blocking ELISA: TGFβRII-AP binding to coated human TGFβ1
Excerpt: as §3, §4

[6] = target: T3, native human TGFβRII expressed on the …; test: flow cytometry on 293-human TGFβRII transfectant cells; MFI against isotype control
Experimental: as §2

[7] = target: T2, human TGFβRII-Fc (recombinant …); test: binding ELISA on coated human TGFβRII-Fc (given as ED50)
Excerpt: as §3, §4

[8] = target: T3, native human TGFβRII expressed on the …; test: cell-based or functional assay
[9] = target: T4, soluble recombinant human TGFβRII …; test: blocking ELISA: TGFβRII-AP binding to coated human TGFβ2
Excerpt: as §3, §4

[10] = target: T1, mouse TGFβRII-Fc (recombinant …); test: ELISA

| Binder | Kd [1] | MFIR (mean fluorescent intensity ratio) [2] | Kd [3] | koff [3] | kon [3] | IC50 [4] | IC50 [5] | MFIR (mean fluorescent intensity ratio) [6] | EC50 [7] | IC50 in the p-Smad2 inhibition assay (TGFβ-induced phosphorylation of Smad2, MDA-MB-231 cells, Western blot) [8] | IC50 [9] | IC50 in the p-Smad2 inhibition assay (TGFβ-induced phosphorylation of Smad2) [8] | binding result [10] |
| --- | --- | --- | --- | --- | --- | --- | --- | --- | --- | --- | --- | --- | --- |
| B1 | 11 pM | 209 | 11 pM | 1.7e-05 s⁻¹ | 1.5e+06 M⁻¹ s⁻¹ | 190 pM | 120 pM | 46 | 59 pM | 5000 pM | 540 pM |  |  |
| B2 | 19 pM |  | 19 pM | 2.7e-05 s⁻¹ | 1.4e+06 M⁻¹ s⁻¹ | 130 pM | 100 pM |  | 31 pM |  | 410 pM | < 25000 pM | binds |
| B3 | 78 pM |  | 78 pM | 3.4e-05 s⁻¹ | 430000 M⁻¹ s⁻¹ | 250 pM | 190 pM |  | 48 pM |  | 420 pM | < 25000 pM | binds |
